Reference: article PMC7596504, “Molecular mechanism of the MORC4 ATPase activation” (Nature Communications, 2020)

Experiments:
O’RangeRuler 5 bp ladder = assay: EMSA with DNA ladder (minimum DNA length); assay type: binding; conditions: 5 bp ladder 50 ng, pH 7.5, 150 mM NaCl
Procedure: EMSA experiments were performed essentially as described. In brief, increasing amounts of WT or mutant CW or ATPaseCW cassette of MORC4 were incubated with 147 bp 601 DNA (5 pmol) or 50 ng of O’RangeRuler 5 bp ladder (Thermo Scientific) in a DNA-binding buffer containing 20 mM Tris-HCl (pH 7.5), 150 mM NaCl, 2.5 mM MgCl2, and 2 mM DTT for 0.5 h on ice. The reaction mixtures were loaded on 5% native polyacrylamide gels, and electrophoresis was performed in 0.2× Tris-borate-EDTA (TBE) buffer at 100 V for 1.2 h on ice. Gels were stained with SYBR Gold (Invitrogen).

NCP147 = assay: EMSA with NCP147; assay type: binding; conditions: 5 nM 147 bp fluorescein-labeled NCP, pH 7.5, 4 °C
Procedure: EMSAs were performed by mixing increasing amounts of MORC4 ATPase with 5 nM 147 bp fluorescein-labeled NCP in 25 mM Tris-HCl pH 7.5, 75 mM NaCl, 25 mM Tris-HCl pH 7.5, 0.005% Tween 20, and 10% glycerol buffer in a 12 μL reaction volume. Each sample was incubated at 4 °C for 5 min and then loaded onto a 5% native polyacrylamide gel. Electrophoresis was performed in 0.3× Tris-borate-EDTA (TBE) at 300 V for 90 min. Fluorescein fluorescence images were acquired with a Typhoon Phosphor Imager.

NCP207 = assay: Fluorescence polarization binding to NCP207
Procedure: Fluorescence polarization measurements were acquired with a Tecan infinite M1000Pro plate reader by exciting at 470 nm and measuring polarized emission at 519 nm with 5 nm excitation and emission bandwidths. The fluorescence polarization was calculated from the emission polarized parallel and perpendicular to the polarized excitation light. Fluorescence polarization measurements were carried out using increasing concentrations of MORC4 ATPaseCW, ATPase alone, or CW alone with 5 nM 207 bp Fluorescein-labeled NCPs in 15 mM Tris pH 7.5, 75 mM NaCl, 0.00625% Tween 20, and 5 mM dithiothreitol buffer in 30 µL reaction volumes. The samples were loaded into a Corning round bottom black polystyrene plate and incubated at room temperature for 10 min before fluorescence polarization measurements of the samples were taken. The data were then fit to a non-cooperative binding isotherm to determine S1/2 values. Errors represent a S.D. between the S1/2 values based on three runs.
Histone octamers unlabeled or labeled with Cy5 at H2AK119 were prepared as previously described. NCPs were reconstituted by combining octamer with 1.25× excess DNA and performing slow salt dialysis. Free DNA was then separated from fully reconstituted NCPs by sucrose gradient purification. NCPs for fluorescence polarization assays were reconstituted from unlabeled octamer and 207 bp DNA containing the 601 Widom sequence flanked with a 30 bp linker on either side and internally labeled with Fluorescein 27 bp in from the 5′ end. Cy3-Cy5 labeled NCPs for FRET assays were reconstituted with Cy5 labeled octamer plus either 147 bp 601 Widom DNA containing a LexA transcription factor binding site at bases 8–27[34], or 252 bp DNA containing the 601 Widom sequence with a 75 bp linker at the 3′ end, a 30 bp linker at the 5’ end, and a Gal4 transcription factor binding site at bases 8–26 in the 601 Widom sequence. The 147 bp LexA-binding DNA was labeled with Cy3 on the 5′ end, and the 252 bp Gal4-binding DNA was internally labeled with Cy3 34 bp in from the 5′ end.

NCP252 = assay: FRET, Gal4 titration into Cy3-Cy5 labeled NCP252; assay type: binding
Procedure: Histone octamers unlabeled or labeled with Cy5 at H2AK119 were prepared as previously described. NCPs were reconstituted by combining octamer with 1.25× excess DNA and performing slow salt dialysis. Free DNA was then separated from fully reconstituted NCPs by sucrose gradient purification. NCPs for fluorescence polarization assays were reconstituted from unlabeled octamer and 207 bp DNA containing the 601 Widom sequence flanked with a 30 bp linker on either side and internally labeled with Fluorescein 27 bp in from the 5′ end. […]
Cy3-Cy5 NCP FRET efficiency measurements were carried out on a Horiba Scientific Fluoromax 4. […] LexA titrations were carried out in 20 mM Tris pH 7.5, 75 mM NaCl, 10% glycerol, 0.00625% Tween 20 buffer with 5 nM 147 bp Cy3-Cy5 NCPs mixed in 20 µL reaction volumes and allowed to incubate for 5 mins at 4 °C before FRET of the sample was measured. […] Gal4 (1–147) titrations were carried out in 10 mM Tris pH 8, 130 mM NaCl, 10% glycerol, 0.0075% Tween 20 buffer with 1 nM 252 bp Cy3-Cy5 nucleosomes mixed in 60 µL reaction volumes and allowed to incubate for 10 mins at room temperature before FRET of the sample was measured. […]

binding to NCP147 in EMSA (NCP147): bound to NCP147
tighter binding to NCP147 or NCP207 than the ATPase domain only (NCP207; ATPaseCW vs ATPase domain, either NCP147 or NCP207): 2.5–6 fold
increase in interaction with NCP207 relative to NCP147 (NCP207; NCP207 vs NCP147): ~ 2 fold
S1/2 (NCP207; fluorescence polarization, 5 nM NCP207, pH 7.5, 75 mM NaCl, room temperature, 10 min, mean ± S.D. of n = 3): 0.20 ± 0.07 µM
B1: ATPaseCW: ATPaseCW cassette (aa 29–486) of human MORC4 (Q8TE76) (protein)
chain: GIRLSTMSPRYLQSNSSSHTRPFSAIAELLDNAVDPDVSARTVFIDVEEVKNKSCLTFTDDGCGMTPHKLHRMLSFGFTDKVIKKSQCPIGVFGNGFKSGSMRLGKDALVFTKNGGTLTVGLLSQTYLECVQAQAVIVPIVPFNQQNKKMIITEDSLPSLEAILNYSIFNRENDLLAQFDAIPGKKGTRVLIWNIRRNKNGKSELDFDTDQYDILVSDFDTEEKMTGGVTSELPETEYSLRAFCGILYMKPRMKIFLRQKKVTTQMIAKSLANVEYDTYKPTFTNKQVRITFGFSCKNSNQFGIMMYHNNRLIKSFEKVGCQVKPTRGEGVGVIGVIECNFLKPAYNKQDFEYTKEYRLTINALAQKLNAYWKEKTSQDNFETSTVARPIPKVPDQTWVQCDECLKWRKLPGKIDPSMLPARWFCYYNSHPKYRRCSVPEEQELTDEDLCLSKAKKQE
modifications: left off: GST, end not stated, cleaved
minimum DNA length for appreciable interaction (O’RangeRuler 5 bp ladder): ≥ 30 bp
effect on nucleosome unwrapping-wrapping equilibrium (NCP252): shifts the unwrapping-wrapping equilibrium toward the wrapped state
